Reference: the supplement of paper PMC9170038

Tests used:
[1] = tested on: MS2 coat protein; assay: apparent KD of MS2 coat protein, switch ON state; designed switch direction (-1 OFF switch, 1 ON switch): -1; higher = weaker reporter binding; details: FMN input: 0 or 200 uM; Eterna round: R93 (includes R88 designs)
Summary of the method: (§1)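 Illumina sequencing clusters served as templates for on-chip transcription of the designed RNA switches. SNAP-549-labelled MS2 coat protein was then titrated in twofold steps from 0.7 or 1.5 nM to 3 µM, allowing 0.8–1.5 h per step at first and 10–20 min per step later. The buffer held 100 mM Tris-HCl pH 7.5, 80 mM KCl and 4 mM MgCl2, without or with constant ligand. Apparent KD is the median per design of normalised cluster binding-curve fits.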

[2] = tested on: MS2 coat protein; assay: apparent KD of MS2 coat protein, switch OFF state (with FMN for OFF switches, without FMN for ON switches); designed switch direction (-1 OFF switch, 1 ON switch): -1; higher = weaker reporter binding; details: FMN input: 0 or 200 uM; Eterna round: R93 (includes R88 designs)
Summary of the method: as §1

| Sequence | apparent KD of MS2 coat protein [1] [nM] | apparent KD of MS2 coat protein [2] [nM] |
| --- | --- | --- |
| AAGAAGGUAGGAUAUGCUAAAGAAAUAAAAAUAAAUAAAGAACAUGAGGAUCACCCAUGUAGAAGGGCCAAGAA [Mer[...]re] | 47.3 | 27.9 |
| AAGAAGUCAGGAUAUACAUGAGGAUCACCCAUGUAAAAGAAAGAAAGGGAAAAGAAAAGUAGAAGGGACAAGAA [Usermaatre-akhenamun Ramesses VIII] | 18.2 | 25.5 |
| AAGAAGUCAGGAUAUACAUGAGGAUCACCCAUGUAAAAGAAAGAAGGGAAAGAGAAAAGUAGAAGGGACAAGAA [Usermaatre-setpenamun Takelot III] | 31.9 | 19.9 |
| AAGAAGUCAGGAUAUGCCAGAGAACAAGAAAGUGAAGAAUAGCAGAAGGGACAUGAGGAUCACCCAUGUAAAGA [Opal 11] | 46.9 | 34.5 |
| AAGAAGUCAGGAUAUGCCAGAGAUCACGAAAGUGACUAAGGGCAGAAGGGACAUGAGGAUCACCCAUGUAAAGA [Opal 5] | 63.4 | 62.1 |
| AAGAAGUGAGGAUAUCGAAGACUGUCGAAAAGACAGUCGAACGAGAAGGCACAUGAGGAUCACCCAUGUGAGAA [Marsurpial 65% 1] | 31 | 55.6 |
| AAGAAGUGAGGAUAUGCAAAAGAAAAGAAAAGAAAAGAAAAGCAGAAGGCACAUGAGGAUCACCCAUGUAAGAA [Petubastis III] | 12.8 | 28.9 |
| AAGAAUCGAGGAUAUACAUGAGGAUCACCCAUGUAAAAGAAAGAAAGGGAAAAGAAAAGUAGAAGGCGAAAGAA [Usermaatre-setepenre Shoshenq III] | 23.4 | 23.6 |
| AAGAAUGGAGGAUAUACAUGAGGAUCACCCAUGUAAAAGAAAGAGGGAAAAGAGAAAAGUAGAAGGCCAAAGAA [Ptolemy VII Neos Philopator] | 36 | 34.4 |
| AAGACUACAGGAUAUACAUGAGGAUCACCCAUGUAACUGACAAGUAGAGUACGGAGAAGUAGAAGGGUAGUCAA [Ruby 34] | 14.9 | 17.6 |
| AAGACUAGAGGAUAUACAUGAGGAUCACCCAUGUAACUGUCAGGAAACUGACGGAGAAGUAGAAGGCUAGUCAA [Mat - Exclusion 3 - JL mod - D85] | 16.1 | 20.2 |
| AAGGGACAUGAGGAUCACCCAUGUAAGGAUAUCGGAAAAGGAAAAAAAAAAAAUAAGACGAGAAGGUACAAAAA [Mat - Exclusion 1 - Eli mod - D80] | 70.2 | 73.5 |
| AAUGCGGCAGGAUAUACAUGAGGAUCACCCAUGUACAUCAGAUAUAUGGUCGAACCAUGUAGAAGGGCCGCAAA [Ex 3May 57] | 87.3 | 202 |
| ACAGUUACAGGAUAUACAAGGGAAAAUAAAAAUAAACUUCAACAUGAGGAUCACCCAUGUAGAAGGGUAACUGA [Ex2 Design 199: Random 14] | 35.5 | 112 |
| ACAUGACAUGAGGAUCACCCAUGUGAGGAUAUGCGAAAAAAAUUUUUAAAAAAAAUUGGCAGAAGGCACAAAAU [George Ritzer.] | 88.9 | 99.1 |
| ACAUGUACAGGAUAUACAUGGAAAAAAAAAAAAAAAAAACUACAUGAGGAUCACCCAUGUAGAAGGGUACAUGA [Ex2 Design 193: Random 12B] | 25.8 | 25.7 |
| ACCUUACAUGAGGAUCACCCAUGUUAGGAUAUCUCGCUUUCGCAAUCACAGCGCAAGCAGAGAAGGGACACGGG [Esceari] | 28.3 | 66.6 |
| ACUAUACGAGGAUAUGCUGUCAACACUAAGGAAUUCGUAUGACAUGAGGAUCACCCAUGUAGAAGGCGUAUACU [JR_Exc002_Sub510] | 23.3 | 27.7 |
| AGAAAACAUGAGGAUCACCCAUGUCAGGAUAUGUAAAAGAAAAGAAAAGAAAGAAGAAGCAGAAGGGACAAGAA [Sekhemkhet] | 28.8 | 36.8 |
| AGAAACGAAGGAUAUACAUGAGGAUCACCCAUGUAAAGAAAGAGGAGAGCCACAAGAAGUAGAAGGUCGAAGAA [JR_Exc003_Sub007] | 27.4 | 50.7 |
| AGAAAGACAGGAUAUACAUGAGGAUCACCCAUGUAAAAGAAAGAAAAGGGAAAGAAAAGUAGAAGGGUCAAAGA [Ruby 64] | 22.1 | 42.1 |
| AGAAAGUCAGGAUAUGCAGAAAAAAAAACGAAAAAAAAACUGCAGAAGGGACAUGAGGAUCACCCAUGUUAAGA [Mat - Exclusion 4 - Mayanna - D130] | 49 | 49 |
| AGAAUUGUAGGAUAUACAUGAGGAUCACCCAUGUGGGAGGUGGAGCAAACAAGACGAGGUAGAAGGACAACGAC [JR_Exc003-Sub904] | 134 | 125 |
